According to the nanobody polyreactivity screen of Harvey et al. (2022):

Assay: yeast display, Sf9 membrane polyspecificity reagent, FACS + sequencing; frameworks hold sequencing errors
How it was run: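 A synthetic nanobody library was expressed on Saccharomyces cerevisiae BJ5465 by galactose induction for 36–48 hours. The library was stained for 1 hour at 4 °C with 10% biotinylated, detergent-solubilized Sf9 membrane reagent and enriched with streptavidin microbeads before FACS. Low and high (top ~1%) gates were set on anti-HA fluorescence for expression and streptavidin fluorescence for reagent binding, and each polyreactivity label reflects the gate of origin.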

| Sequence | polyreactivity (PSR sort gate) |
| --- | --- |
| QVQLVESGGGLVQAGGSLRLSSAASGITFITYAMVWYRQAPGKERELVAAISSSGGSTYYADSVKGRFTFSRDNAKNTVYLKMNSLKPEDTAVYYCAAEYVWYFGWKYGYWGQGTQVTVSS | high polyreactivity |
| QVQLVESGGGLVQAGGSLRLSSAASGITFKYYVMGWYRQAPGKEREFVAAISWGGGSTYYADSVKGRFTISRDNAKITVYLQMNSLKPEDTAVYYCATSHGLYTRWYDYWGQGTQVTVSS | high polyreactivity |
| QVQLVESGGGLVQAGGSLRLSSAASGITFPWYAMGWSRQAPGKERELVAAISRSGGSTYADSVKGRFTISRDNAKNTVYLQMNSLKPEDTAVYYCAAGTYSGSRFDYWGQGTQVTVSS | high polyreactivity |
| QVQLVESGGGLVQAGGSLRLSSAASGITFVWNAMGWYRQAPGKERELVATISRGGVRTYYADSVKGRFTISRDNAKNTVYLQMNSLKQEDTAVYYCAADGSYVHWEYGYWGQGTQVTVSS | low polyreactivity |
| QVQLVESGGGLVQAGGSLRLSSAASGLIFSVYAMGWYRQAPGKERELVAAISSRGGTTYYADSVKGRFTISRDNAKNTVYLQMNSLKPEDTAVYYCAARSWSYTYDYWGQGTQVTVSS | high polyreactivity |
| QVQLVESGGGLVQAGGSLRLSSAASGLTFINYDMGWYRQAPAKERELVAAISQIGTSTYYADSVKRRFTISRDNAKNTVYLQMNSLKPEDTAVYYCAAEFPTVYIPWSEMDYWGQGTQVTVSS | high polyreactivity |
| QVQLVESGGGLVQAGGSLRLSSAASGLTFSDYAMAWYRQAPGKERELVAGISSGGSTYYADSVKGRFTISRDNAKNTVYLQMNSLKPEDTAVYYCAATRYNRWPIKFDYWVQGTQVTVSS | high polyreactivity |
| QVQLVESGGGLVQAGGSLRLSSAASGNTFRHYAMGRYRQAPGKERELVAAISYSGGSTYYADSVKGRFTISRDNAKNTVYLQMNSLKPEDTAVYYCAAYSYASYGVSGYYYWGQGTQVTVSS | high polyreactivity |
| QVQLVESGGGLVQAGGSLRLSSAASGRIFGHYAMGWYRQAPGKERELVAAISRSGTRTYYADSVKGRFTISRDNAKNTVYLQMNSLKPEDTAVYYCAAYTYKGIYYYWGQGTQVTVSS | high polyreactivity |
| QVQLVESGGGLVQAGGSLRLSSAASGRIFKGNAMGWYRQAPGKERELVAAISKRGGSTHYADSVKGRFTISRDNSKNTVYLQMNSLKPEDTAVYYCATDSYYVGAVHYYYWGQGTQVTVSS | high polyreactivity |
| QVQLVESGGGLVQAGGSLRLSSAASGRIFPRYAMGWYSQAPGKERELVAAISGSGGGTYYADSVKGRFTISRDNAKNTVYLQMNSLKPEDTAVYYCAAVATQEKYDYWGQGTQVTVSS | low polyreactivity |
| QVQLVESGGGLVQAGGSLRLSSAASGRIFRGYTMGCSRQAPGKDRELVAAISRSGTRTYYADSVKGRFPISRDNAKNTGYLQMNSLTPEDTAVYDCAVDSTTAGTGMGYWGQGTQVTVSS | high polyreactivity |
| QVQLVESGGGLVQAGGSLRLSSAASGRIFWAYLMGRYRQAPGKERELVATIRWRGGSTYYADSVKGRFTISRDNAKNTFYLQMIRLKLEDTAVYYCNADRYSRISPTRYDYWGQGTQVTVSS | high polyreactivity |
| QVQLVESGGGLVQAGGSLRLSSAASGRIFYRYTMGWYRQAPGKERELVAAITRGSTNYADSVKGRFTISRDNAKNTVYLQMNSLKPDDTAVYYWAKAYSRTDRFSSPYYYYWGQGTQVTVSS | high polyreactivity |
| QVQLVESGGGLVQAGGSLRLSSAASGRISGYNMGWYRQAPGKERELVAAISNGGSTNYADSVKGRFTISRDNAKNTVYLQMNSLKPEDTAVYYCNRRVPYSFYSRGYYYWGQGTQVTVSS | high polyreactivity |
| QVQLVESGGGLVQAGGSLRLSSAASGRNYPKYAMGSYRQAPGKERELVAAISQRGGSTYYADSVKGRFTISRDNAKNTVYLQMNSLKPEDTAVYYCAASYYRQSGEYDYWGQGTLVTVSS | low polyreactivity |
| QVQLVESGGGLVQAGGSLRLSSAASGRTFGGYAMGWYRQAPGKERELVAAISWTGGSTYDADSVKGRFTISRDNAKNTVYLQMNSLKPEDTAVYYCNRDVGRNYQGPEYYYWGQGTQVTVSS | low polyreactivity |
